Here are results for 1 molecule from article PMC3749136 (PLoS ONE, 2013).

This experiment deals with T1, JAK1 JH1 domain (UniProt P23458 875-1153).
T1 construct: JAK1, JH1 (kinase) domain; also called JAK1 kinase (JH1) domain; active JAK1 JH1 domain
Nature of the experiment: SPR; SOCS5 175-244 immobilised by amine coupling on a CM5 chip; JAK JH1 domains (62.5 nM to 2 µM) injected; 10 mM HEPES pH 8.0, 200 mM NaCl, 3.0 mM EDTA, 0.05% Tween20; steady-state fit, apparent KD; BIAcore3000. Conditions: both partners purified. In general terms: Surface plasmon resonance follows binding to a sensor surface in real time, without labels.

T1 sequence (P23458 875-1153): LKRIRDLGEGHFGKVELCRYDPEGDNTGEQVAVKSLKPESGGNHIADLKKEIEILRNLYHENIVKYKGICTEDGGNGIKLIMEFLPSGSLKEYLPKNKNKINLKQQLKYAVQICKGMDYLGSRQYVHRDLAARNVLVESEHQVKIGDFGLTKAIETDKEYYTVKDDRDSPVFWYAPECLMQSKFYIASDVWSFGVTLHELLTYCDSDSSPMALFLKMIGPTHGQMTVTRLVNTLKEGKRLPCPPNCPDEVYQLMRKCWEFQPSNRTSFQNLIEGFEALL

B1: SOCS5 175–244 fragment (domain or fragment, mouse, UniProt O54928 175-244, looked up)
chain: RSLRQRLQDTVGLCFPMRTYSKQSKPLFSNKRKIHLSELMLEKCPFPAGSDLAQKWHLIKQHTAPVSPHS
notes: SOCS5, mouse, residues 175-244 (region conserved in SOCS4); Mass by LC-MS 8103 Da; also called JIR; source: E. coli BL21 (DE3), GST fusion purified on glutathione-Sepharose 4B, cleaved with TEV, RP-HPLC; not shown: GST, N-terminal, cleaved
For the molecule B1, the Kd came out at 0.5 µM.
